Key:
[1] = target: in vitro-translated human Nanog (hNanog), Q9H9S0
[2] = target: T1, mouse Nanog (mNanog), Q80Z64
T1 chain: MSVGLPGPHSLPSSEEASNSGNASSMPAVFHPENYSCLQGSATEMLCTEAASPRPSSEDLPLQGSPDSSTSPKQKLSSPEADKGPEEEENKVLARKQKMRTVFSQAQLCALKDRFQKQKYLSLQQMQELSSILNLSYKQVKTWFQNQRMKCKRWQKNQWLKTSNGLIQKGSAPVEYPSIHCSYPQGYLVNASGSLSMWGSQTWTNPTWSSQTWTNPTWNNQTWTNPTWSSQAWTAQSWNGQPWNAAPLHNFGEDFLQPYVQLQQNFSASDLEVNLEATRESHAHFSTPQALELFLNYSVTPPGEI

Chain of in vitro-translated human Nanog (hNanog), Q9H9S0 (Q9H9S0 whole entry): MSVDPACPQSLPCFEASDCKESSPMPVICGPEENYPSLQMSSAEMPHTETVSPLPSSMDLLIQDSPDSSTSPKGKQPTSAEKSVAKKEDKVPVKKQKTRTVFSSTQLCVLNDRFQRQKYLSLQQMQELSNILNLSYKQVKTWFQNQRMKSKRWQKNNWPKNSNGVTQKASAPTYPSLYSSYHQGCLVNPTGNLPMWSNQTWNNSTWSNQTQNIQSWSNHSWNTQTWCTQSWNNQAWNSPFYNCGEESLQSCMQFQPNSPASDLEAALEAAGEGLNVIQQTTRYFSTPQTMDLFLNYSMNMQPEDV

B1: recombinant active caspase-3 (protein)
chain: SGISLDNSYKMDYPEMGLCIIINNKNFHKSTGMTSRSGTDVDAANLRETFRNLKYEVRNKNDLTREEIVELMRDVSKEDHSKRSSFVCVLLSHGEEGIIFGTNGPVDLKKITNFFRGDRCRSLTGKPKLFIIQACRGTELDCGIETDSGVDDDMACHKIPVEADFLYAYSTAPGYYSWRNSKDGSWFIQSLCAMLKQYADKLEFMHILTRVNRKVATEFESFSFDATFHAKKQIPCIVSMLTKELYFYH
in vitro caspase-3 cleavage assay [1]: Caspase-3 cleaved human (h) Nanog in vitro | in vitro caspase-3 cleavage assay (Oct4): remained uncleaved (data not shown) | in vitro caspase-3 cleavage assay (Sox2): remained uncleaved (data not shown) | cleavage of immunoprecipitated mNanog by recombinant caspase [2]: Only caspase-9 effectively cleaved mNanog into a 27 kDa fragment | in vitro caspase-3 cleavage assay [2]: very little or no cleavage of recombinant mNanog by caspase-3 was observed
